This note sets out measurements from patent US20210040184A1 (ATRECA, published 2021).

A value given as a limit tells only on which side of the number the result lay.

Holding throughout (assay): cell-based or functional assay
Assay [1] concerns the target HIV-1 DU172.17 envelope (Env) on Env.IMC.LucR virus (HIV-1 clade C).
Assay [2] addresses HIV-1 CAP45.2.00.G3 envelope (Env) on Env.IMC.LucR virus (HIV-1 clade C).
The target in assay [3] is HIV-1 CNE20 envelope (Env) on Env.IMC.LucR virus (HIV-1 clade BC).
In assay [4] the target is HIV-1 REJO4541.67 envelope (Env) on Env.IMC.LucR virus (HIV-1 clade B).
Assay [5] concerns the target HIV-1 X1632_S2_B10 envelope (Env) on Env.IMC.LucR virus (HIV-1 clade G).
The target in assay [6] is HIV-1 AC10.0.29 envelope (Env) on Env.IMC.LucR virus (HIV-1 clade B).
Assay [7] has as its target HIV-1 DU422.1 envelope (Env) on Env.IMC.LucR virus (HIV-1 clade C).
For assay [8], the target named is HIV-1 WITO4160.33 envelope (Env) on Env.IMC.LucR virus (HIV-1 clade B).
The target in assay [9] is HIV-1 ZM233M.PB6 envelope (Env) on Env.IMC.LucR virus (HIV-1 clade C).

B1: Germ17 (antibody, V domains shown)
VH: QVDLVQSGAVVKKPGDSVRVSCEAQGYRFPDYIIHWIRRAPGQGPEWMGWMNPMGGQVNIPWKFQGRVSMTRDTSIETAYMDLRGLRSDDTAVYYCVRDRSNGSGKRFESSNWFLDLWGRGTLVTVSS
VL: QSALTQPRSVSGSPGQSVTISCTGTHNLVSWCQHHPGKAPKLMIYDFNKRPSGVPDRFSGSGSGGTASLTISGLQAEDEAEYFCWAYEAFGGGTKLTVL
For the molecule B1, the “IC50 of virus neutralization (TZM-BL, luciferase)” value (from here on “IC50 of virus neutralization”) is 0.117 µg/mL in assay [1]; 0.037 µg/mL in [2]; 0.081 µg/mL in assay [3]; 0.033 µg/mL in [4]; over 50 µg/mL in assay [5]; over 50 µg/mL in assay [6]. Moreover, the “IC50 of virus neutralization” value in assay [7] is over 50 µg/mL.

B2: Germ12 (antibody, V domains shown)
VH: QVDLVQSGAVVKKPGDSVRVSCEAQGYRFPDYIIHWIRRAPGQGPEWMGWMNPMGGQVNIPWKFQGRVSMTRDTSIETAYMDLRGLRSDDTAVYYCVRDRSNGSGKRFESSNWFLDLWGRGTLVTVSS
VL: QSALTQPRSVSGSPGQSVTISCTGTHNLVSWCQHQPGRAPKLLIYDFNKRPSGVPDRFSGSGSGGTASLTISGLQDEDDAEYFCWAYEAFGGGTKLTVL
As for B2, the “IC50 of virus neutralization” value is 0.267 µg/mL in assay [1]; 0.063 µg/mL in [2]; 0.244 µg/mL in assay [3]; 0.092 µg/mL in assay [4]; over 50 µg/mL in assay [5]; over 50 µg/mL in assay [6]. Besides, in assay [7], the “IC50 of virus neutralization” value was over 50 µg/mL.

B3: Germ23_NglycoSA_CysCV (antibody, V domains shown)
VH: QVQLVQSGAEVKKPGASVKVSCEASGYRFPDYIIHWIRRAPGQGPEWMGWMNPMGGQVNIPWKFQGRVSMTRDTSIETAYMELRGLRSDDTAVYYCVRDRSNGAGKRFESSNWFLDLWGRGTLVTVSS
VL: QSALTQPRSVSGSPGQSVTISCTGTHNLVSWVQHHPGKAPKLMIYDFNKRPSGVPDRFSGSGSGGTASLTISGLQAEDEAEYFCWAYEAFGGGTKLTVL
With B3, the “IC50 of virus neutralization” value is 0.831 µg/mL in [1]; 0.05 µg/mL in assay [2]; 0.064 µg/mL in assay [3]; at most 0.02 µg/mL in [4]; over 50 µg/mL in [5]; over 50 µg/mL in assay [6]. Moreover, the “IC50 of virus neutralization” value in [7] is over 50 µg/mL.

B4: Germ12_NglycoSA_CysCA (antibody, V domains shown)
VH: QVDLVQSGAVVKKPGDSVRVSCEAQGYRFPDYIIHWIRRAPGQGPEWMGWMNPMGGQVNIPWKFQGRVSMTRDTSIETAYMDLRGLRSDDTAVYYCVRDRSNGAGKRFESSNWFLDLWGRGTLVTVSS
VL: QSALTQPRSVSGSPGQSVTISCTGTHNLVSWAQHQPGRAPKLLIYDFNKRPSGVPDRFSGSGSGGTASLTISGLQDEDDAEYFCWAYEAFGGGTKLTVL
As to B4, the “IC50 of virus neutralization” value in assay [1] was 0.088 µg/mL; in [2], 0.042 µg/mL; in assay [3], 0.062 µg/mL; in assay [4], 0.028 µg/mL; in assay [5], over 50 µg/mL; in assay [6], over 50 µg/mL. Further, the “IC50 of virus neutralization” value in [7] is over 50 µg/mL.

B5: Germ18 (antibody, V domains shown)
VH: QVQLVQSGAEVKKPGASVKVSCEASGYRFPDYIIHWIRRAPGQGPEWMGWMNPMGGQVNIPWKFQGRVSMTRDTSIETAYMELRGLRSDDTAVYYCVRDRSNGSGKRFESSNWFLDLWGRGTLVTVSS
VL: QSALTQPRSVSGSPGQSVTISCTGTHNLVSWCQHQPGRAPKLLIYDFNKRPSGVPDRFSGSGSGGTASLTISGLQDEDDAEYFCWAYEAFGGGTKLTVL
For B5, the “IC50 of virus neutralization” value in [1] is 0.223 µg/mL; in [2], 0.036 µg/mL; in assay [3], 0.081 µg/mL; in assay [4] it was 0.039 µg/mL; in assay [5] it was over 50 µg/mL; in [6], over 50 µg/mL. Moreover, in assay [7], the “IC50 of virus neutralization” value is over 50 µg/mL.

B6: Germ6 (antibody, V domains shown)
VH: ADLVQSGAVVKKPGDSVRVSCEAQGYRFPDYIIHWIRRAPGQGPEWMGWMNPMGGQVNIPWKFQGRVSMTRDTSIETAYLDLRGLKSDDTAVYYCVRDRSNGSGKRFESSNWFLDLWGRGTAVTVQS
VL: QSALTQPRSVSGSPGQSVTISCTGTHNLVSWCQHQPGRAPKLLIYDFNKRPSGVPDRFSGSGSGGTASLTISGLQDEDDAEYFCWAYEAFGGGTKLTVL
Regarding B6, the “IC50 of virus neutralization” value in [1] is 0.102 µg/mL; in assay [2], 0.135 µg/mL; in assay [3] it was 0.091 µg/mL; in [4], 0.062 µg/mL; in assay [5], over 50 µg/mL; in assay [6], over 50 µg/mL. The “IC50 of virus neutralization” value in assay [7] is over 50 µg/mL.

B7: Cd4bs_H53MS_H54GY (antibody, V domains shown)
VH: ADLVQSGAVVKKPGDSVRISCEAQGYRFPDYIIHWIRRAPGQGPEWMGWMNPSYGQVNIPWKFQGRVSMTRDTSIETAFLDLRGLKSDDTAVYYCVRDRSNGSGKRFESSNWFLDLWGRGTAVTIQS
VL: QSALTQPRSVSASPGQSVTISCTGTHNLVSWCQHQPGRAPKLLIYDFNKRPSGVPDRFSGSGSGGTASLTITGLQDDDDAEYFCWAYEAFGGGTKLTVL
Turning to B7, the “IC50 of virus neutralization” value in [1] was found to be 0.273 µg/mL; in [2] it was 0.03 µg/mL; in assay [3] it was 0.047 µg/mL; in assay [4], 0.044 µg/mL; in assay [5], 9.87 µg/mL; in [8] it was 0.15 µg/mL. The “IC50 of virus neutralization” value came to 3 µg/mL in assay [6], 0.096 µg/mL in assay [9] and 0.89 µg/mL in [7].

B8: CysCA (antibody, V domains shown)
VH: ADLVQSGAVVKKPGDSVRISCEAQGYRFPDYIIHWIRRAPGQGPEWMGWMNPMGGQVNIPWKFQGRVSMTRDTSIETAFLDLRGLKSDDTAVYYCVRDRSNGSGKRFESSNWFLDLWGRGTAVTIQS
VL: QSALTQPRSVSASPGQSVTISCTGTHNLVSWAQHQPGRAPKLLIYDFNKRPSGVPDRFSGSGSGGTASLTITGLQDDDDAEYFCWAYEAFGGGTKLTVL
Regarding B8, the “IC50 of virus neutralization” value is 0.169 µg/mL in assay [1]; 0.035 µg/mL in assay [2]; 0.034 µg/mL in [3]; at most 0.02 µg/mL in assay [4]; over 50 µg/mL in [5]; over 50 µg/mL in assay [6]. Also, in [7], the “IC50 of virus neutralization” value was over 50 µg/mL.

B9: Germ23 (antibody, V domains shown)
VH: QVQLVQSGAEVKKPGASVKVSCEASGYRFPDYIIHWIRRAPGQGPEWMGWMNPMGGQVNIPWKFQGRVSMTRDTSIETAYMELRGLRSDDTAVYYCVRDRSNGSGKRFESSNWFLDLWGRGTLVTVSS
VL: QSALTQPRSVSGSPGQSVTISCTGTHNLVSWCQHHPGKAPKLMIYDFNKRPSGVPDRFSGSGSGGTASLTISGLQAEDEAEYFCWAYEAFGGGTKLTVL
On to B9, for which the “IC50 of virus neutralization” value in assay [1] was 0.182 µg/mL; in assay [2] it was 0.035 µg/mL; in [3], 0.066 µg/mL; in [4], 0.037 µg/mL; in assay [5] it was over 50 µg/mL; in [6], over 50 µg/mL. Further, the “IC50 of virus neutralization” value in [7] was over 50 µg/mL.

B10: Hydro2 (antibody, V domains shown)
VH: ADLVQSGAVVKKPGDSVRISCEAQGYRFPDYIIHWIRRAPGQGPEWMGWMNPMGGQVNIPQKFQGRVSMTRDTSIETAFLDLRGLKSDDTAVYYCVRDRSNGSGKRFESSNWFLDLWGRGTAVTIQS
VL: QSALTQPRSVSASPGQSVTISCTGTHNLVSWCQHQPGRAPKLLIYDFNKRPSGVPDRFSGSGSGGTASLTITGLQDDDDAEYFCWAYENFGGGTKLTVL
For B10, the “IC50 of virus neutralization” value was 0.131 µg/mL in assay [1]; 0.039 µg/mL in [2]; 0.049 µg/mL in [3]; at most 0.02 µg/mL in assay [4]; over 50 µg/mL in assay [5]; over 50 µg/mL in assay [6]. In addition, the “IC50 of virus neutralization” value in assay [7] is over 50 µg/mL.
